Laboratory results: paper PMC6592955

What was measured:
Assay in all cases: FRET or BRET; 2pFLIM-FRET in single dendritic spines of CA1 pyramidal neurons, organotypic hippocampal slices; train of two-photon glutamate uncaging (0.49 Hz, 30 pulses, sLTP protocol) without extracellular Mg^2+; room temperature (25–27 °C); 128 ms/frame; decay after the train fitted with a double exponential; T286A in slices of Camk2a^T286A knock-in mice
[1] = biological target: mEGFP-CaMKIIα^T286A (Rattus norvegicus) (UniProt P11275)
[2] = biological target: mEGFP-CaMKIIα^T305A/T306A (Rattus norvegicus) (UniProt P11275)
[3] = biological target: mEGFP-CaMKIIα (wildtype) (Rattus norvegicus) (UniProt P11275)

Substance | dissociation time constant (tau fast, decay after the train) [1] [s] | dissociation time constant (tau fast, decay after the train) [2] [s] | dissociation time constant (tau fast, decay after the train) [3] [s]
mCherry-CaM (from UniProt P0DP26 1-149) (natural protein) | 1 | 9.3 | 
mCherry-CaM (from UniProt P0DP26 1-149) (natural protein; other documents disagree on this pair) |  |  | 3.2
